Data from US20140370023A1 (HENRY M JACKSON FOUNDATION FOR THE ADVANCEMENT OF MILITARY …, published 2014).

Tests used:
[1] = biological target: T1, human FLi1 protein with N-terminal FLAG tag (human, UniProt Q01543 1-452, limits assumed); assay: Western blot of transiently expressed FLAG-tagged protein
T1 construct: not shown: N-terminal FLAG tag
T1 sequence (looked up): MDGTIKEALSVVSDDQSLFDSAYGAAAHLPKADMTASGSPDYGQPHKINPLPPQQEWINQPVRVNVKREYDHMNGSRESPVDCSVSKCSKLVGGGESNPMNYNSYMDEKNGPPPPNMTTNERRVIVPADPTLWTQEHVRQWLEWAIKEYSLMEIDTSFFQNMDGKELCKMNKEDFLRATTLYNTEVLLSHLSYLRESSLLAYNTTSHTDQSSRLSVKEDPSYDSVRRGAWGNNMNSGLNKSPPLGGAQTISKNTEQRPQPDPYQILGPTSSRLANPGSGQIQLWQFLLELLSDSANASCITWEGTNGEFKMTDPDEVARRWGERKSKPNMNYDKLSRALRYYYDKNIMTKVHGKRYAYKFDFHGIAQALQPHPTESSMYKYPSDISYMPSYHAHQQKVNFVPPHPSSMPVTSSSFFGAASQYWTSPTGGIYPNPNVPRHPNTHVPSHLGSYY
Method: Therefore, the 9FY antibody was tested to see if it can discriminate between human ERG3 and the human FLi1 protein using Western blot assays. In this assay, transiently expressed human ERG3 (encoded by TMPRSS2/ERG3 construct) or human FLi1 protein was evaluated with the 9FY antibody.

[2] = biological target: T2, immunizing polypeptide (amino acids 42-66 of SEQ ID NO: 1) (human); assay: direct ELISA, peptides plated at 1 to 1000 ng/mL (x axis 'ERG, ng/mL', log scale), probed with 9FY at 1:10,000, absorbance at 450 nm
T2 construct: Chemically synthesized; also called ERG 42-66 polypeptide
T2 peptide: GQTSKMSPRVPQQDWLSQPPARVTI
Method: Various concentrations of the immunizing polypeptide and two control polypeptides were plated in wells for ELISA and were probed with 1:10,000 dilution of 9FY antibody. Y-axis indicates absorbance values at 450 nm. On the X-axis the log 10 concentration of the ERG immunizing polypeptide and control polypeptides is shown in ng/ml. […] In sandwich ELISA assay, ERG3 protein lysates were plated in multi-well format plates and were assayed with various concentrations of 9FY antibody in the presence (white bar) or absence of the immunizing polypeptide (shaded bar). Fold dilution is marked on the X-axis. Antibody titration values are marked by shaded bars.
In an ELISA assay, we assessed the sensitivity and specificity of the 9FY antibody measuring the titer of various concentrations of the immunizing polypeptide (i.e. amino acids 42-66 of SEQ ID NO: 1). For direct ELISA, plates were first coated with 100 μl of ERG3 antigen at 1 ng/ml, 10 ng/ml, 100 ng/ml and 1 μg/ml and incubated for 16 h at 4° C. on a shaker before washing the plate five times with PBSt (300 μl/well). […] Absorbance was measured at 450 nm on a […]® Ascent (Thermo Scientific, Waltham, Mass.) ELISA plate reader according to the manufacturer's recommendation and the absorbance were plotted against antibody dilution. […]

[3] = biological target: T3, human ERG3 (wild type ERG3 protein, 53 kDa) (human, UniProt P11308 1-479); assay: sandwich ELISA on ERG3 protein lysate, 9FY titrated by fold dilution, absorbance at 450 nm; competitor: immunizing polypeptide
T3 construct: Expressed heterologously in HEK-293 cells (pIRES-EGFP(CMV)-ERG3), as protein lysate in the ELISA, or in LNCaP cells by Ad-ERG3 adenovirus; also called ERG3 antigen
T3 sequence: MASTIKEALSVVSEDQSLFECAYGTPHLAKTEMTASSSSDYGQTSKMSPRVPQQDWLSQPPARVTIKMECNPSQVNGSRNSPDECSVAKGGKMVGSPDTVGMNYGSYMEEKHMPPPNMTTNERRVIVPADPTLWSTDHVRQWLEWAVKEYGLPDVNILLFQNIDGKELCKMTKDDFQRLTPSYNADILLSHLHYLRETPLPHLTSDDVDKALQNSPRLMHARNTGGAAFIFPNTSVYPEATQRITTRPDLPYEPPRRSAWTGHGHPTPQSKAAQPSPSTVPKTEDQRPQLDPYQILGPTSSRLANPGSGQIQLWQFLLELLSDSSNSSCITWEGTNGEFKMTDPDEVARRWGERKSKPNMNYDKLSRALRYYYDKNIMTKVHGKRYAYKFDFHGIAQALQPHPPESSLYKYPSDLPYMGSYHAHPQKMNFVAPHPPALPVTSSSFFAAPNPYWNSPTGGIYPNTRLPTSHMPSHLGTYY

binding result [1]: no binding
binding result [2]: binds
binding result [3]: binds
B1: 9FY antibody (monoclonal antibody produced by the hybridoma clone 9FY) (antibody, V domains shown)
VH: QIQLVQSGPDLKKPGETVKISCKASGYTFTNYGINWVKQAPGKGFKWMGWIDTYTGEPTYVDDFKGRFVFSLETSASTAYLQINNLKNEDTATYFCVRKRAYDYEIYWGQGTPLTVSS
VL: ENVLTQSPAIMSASLGEKVTLSCRASSSVYYMFWYQQKSDASPKLWIYYTSNLAPGVPARFSGSGSGNSYSLTISSVEGEDAATYYCLQFSTSPWTFGGGTKLEIKR
notes: Mouse (Balb/C) hybridoma antibody purified from ascites over Protein G; sub-type determined to be IgG; also called ERG-MAb; 9FY monoclonal antibody
